According to patent US20240270846A1 (published 2024):

B1: GLS3000 F55S one-arm antibody (antibody, human IgG1, kappa, L234A L235A, N297A, name in Kabat numbering)
light: DIVMTQSPLSLPVTPGEPASISCRSSQSLVHSNRNTYLHWYQQKPGQAPRLLIYKVSNRSSGVPDRFSGSGSGTDFTLKISRVEAEDVGVYYCGQGTQVPYTFGQGTKLEIKRTVAAPSVFIFPPSDEQLKSGTASVVCLLNNFYPREAKVQWKVDNALQSGNSQESVTEQDSKDSTYSLSSTLTLSKADYEKHKVYACEVTHQGLSSPVTKSFNRGEC
heavy: QVQLVESGGGVVQPGRSLRLSCAASGFTFSNAWMHWVRQAPGKGLEWVAQIKAKSNNYATYYAESVKGRFTISRDDSKNSLYLQMNSLKTEDTAVYYCRYVHYGAYYGVDAWGQGTTVTVSSASTKGPSVFPLAPSSKSTSGGTAALGCLVKDYFPEPVTVSWNSGALTSGVHTFPAVLQSSGLYSLSSVVTVPSSSLGTQTYICNVNHKPSNTKVDKKVEPKSCDKTHTCPPCPAPEAAGGPSVFLFPPKPKDTLMISRTPEVTCVVVDVSHEDPEVKFNWYVDGVEVHNAKTKPREEQYASTYRVVSVLTVLHQDWLNGKEYKCKVSNKALPAPIEKTISKAKGQPREPQVYTLPPSRCELTKNQVSLSCAVKGFYPSDIAVEWESNGQPENNYKTTPPVLDSDGSFFLVSKLTVDKSRWQQGNVFSCSVMHEALHNHYTQKSLSLSPDYKDDDDK
chain: EPKSSDKTHTCPPCPAPELLGGPSVFLFPPKPKDTLMISRTPEVTCVVVDVSHEDPEVKFNWYVDGVEVHNAKTKPREEQYNSTYRVVSVLTVLHQDWLNGKEYKCKVSNKALPAPIEKTISKAKGQPREPQVCTLPPSRDELTKNQVSLWCLVKGFYPSDIAVEWESNGQPENNYKTTPPVLDSDGSFFLYSKLTVDKSRWQQGNVFSCSVMHEALHNRYTQKSLSLSP
B2: GLS3000 F55W one-arm antibody (antibody, human IgG1, kappa, L234A L235A, N297A, name in Kabat numbering)
light: DIVMTQSPLSLPVTPGEPASISCRSSQSLVHSNRNTYLHWYQQKPGQAPRLLIYKVSNRWSGVPDRFSGSGSGTDFTLKISRVEAEDVGVYYCGQGTQVPYTFGQGTKLEIKRTVAAPSVFIFPPSDEQLKSGTASVVCLLNNFYPREAKVQWKVDNALQSGNSQESVTEQDSKDSTYSLSSTLTLSKADYEKHKVYACEVTHQGLSSPVTKSFNRGEC
heavy: QVQLVESGGGVVQPGRSLRLSCAASGFTFSNAWMHWVRQAPGKGLEWVAQIKAKSNNYATYYAESVKGRFTISRDDSKNSLYLQMNSLKTEDTAVYYCRYVHYGAYYGVDAWGQGTTVTVSSASTKGPSVFPLAPSSKSTSGGTAALGCLVKDYFPEPVTVSWNSGALTSGVHTFPAVLQSSGLYSLSSVVTVPSSSLGTQTYICNVNHKPSNTKVDKKVEPKSCDKTHTCPPCPAPEAAGGPSVFLFPPKPKDTLMISRTPEVTCVVVDVSHEDPEVKFNWYVDGVEVHNAKTKPREEQYASTYRVVSVLTVLHQDWLNGKEYKCKVSNKALPAPIEKTISKAKGQPREPQVYTLPPSRCELTKNQVSLSCAVKGFYPSDIAVEWESNGQPENNYKTTPPVLDSDGSFFLVSKLTVDKSRWQQGNVFSCSVMHEALHNHYTQKSLSLSPDYKDDDDK
chain: EPKSSDKTHTCPPCPAPELLGGPSVFLFPPKPKDTLMISRTPEVTCVVVDVSHEDPEVKFNWYVDGVEVHNAKTKPREEQYNSTYRVVSVLTVLHQDWLNGKEYKCKVSNKALPAPIEKTISKAKGQPREPQVCTLPPSRDELTKNQVSLWCLVKGFYPSDIAVEWESNGQPENNYKTTPPVLDSDGSFFLYSKLTVDKSRWQQGNVFSCSVMHEALHNRYTQKSLSLSP
B3: GLS3000 F55T one-arm antibody (antibody, human IgG1, kappa, L234A L235A, N297A, name in Kabat numbering)
light: DIVMTQSPLSLPVTPGEPASISCRSSQSLVHSNRNTYLHWYQQKPGQAPRLLIYKVSNRTSGVPDRFSGSGSGTDFTLKISRVEAEDVGVYYCGQGTQVPYTFGQGTKLEIKRTVAAPSVFIFPPSDEQLKSGTASVVCLLNNFYPREAKVQWKVDNALQSGNSQESVTEQDSKDSTYSLSSTLTLSKADYEKHKVYACEVTHQGLSSPVTKSFNRGEC
heavy: QVQLVESGGGVVQPGRSLRLSCAASGFTFSNAWMHWVRQAPGKGLEWVAQIKAKSNNYATYYAESVKGRFTISRDDSKNSLYLQMNSLKTEDTAVYYCRYVHYGAYYGVDAWGQGTTVTVSSASTKGPSVFPLAPSSKSTSGGTAALGCLVKDYFPEPVTVSWNSGALTSGVHTFPAVLQSSGLYSLSSVVTVPSSSLGTQTYICNVNHKPSNTKVDKKVEPKSCDKTHTCPPCPAPEAAGGPSVFLFPPKPKDTLMISRTPEVTCVVVDVSHEDPEVKFNWYVDGVEVHNAKTKPREEQYASTYRVVSVLTVLHQDWLNGKEYKCKVSNKALPAPIEKTISKAKGQPREPQVYTLPPSRCELTKNQVSLSCAVKGFYPSDIAVEWESNGQPENNYKTTPPVLDSDGSFFLVSKLTVDKSRWQQGNVFSCSVMHEALHNHYTQKSLSLSPDYKDDDDK
chain: EPKSSDKTHTCPPCPAPELLGGPSVFLFPPKPKDTLMISRTPEVTCVVVDVSHEDPEVKFNWYVDGVEVHNAKTKPREEQYNSTYRVVSVLTVLHQDWLNGKEYKCKVSNKALPAPIEKTISKAKGQPREPQVCTLPPSRDELTKNQVSLWCLVKGFYPSDIAVEWESNGQPENNYKTTPPVLDSDGSFFLYSKLTVDKSRWQQGNVFSCSVMHEALHNRYTQKSLSLSP
B4: GLS3000 F55V one-arm antibody (antibody, human IgG1, kappa, L234A L235A, N297A, name in Kabat numbering)
light: DIVMTQSPLSLPVTPGEPASISCRSSQSLVHSNRNTYLHWYQQKPGQAPRLLIYKVSNRVSGVPDRFSGSGSGTDFTLKISRVEAEDVGVYYCGQGTQVPYTFGQGTKLEIKRTVAAPSVFIFPPSDEQLKSGTASVVCLLNNFYPREAKVQWKVDNALQSGNSQESVTEQDSKDSTYSLSSTLTLSKADYEKHKVYACEVTHQGLSSPVTKSFNRGEC
heavy: QVQLVESGGGVVQPGRSLRLSCAASGFTFSNAWMHWVRQAPGKGLEWVAQIKAKSNNYATYYAESVKGRFTISRDDSKNSLYLQMNSLKTEDTAVYYCRYVHYGAYYGVDAWGQGTTVTVSSASTKGPSVFPLAPSSKSTSGGTAALGCLVKDYFPEPVTVSWNSGALTSGVHTFPAVLQSSGLYSLSSVVTVPSSSLGTQTYICNVNHKPSNTKVDKKVEPKSCDKTHTCPPCPAPEAAGGPSVFLFPPKPKDTLMISRTPEVTCVVVDVSHEDPEVKFNWYVDGVEVHNAKTKPREEQYASTYRVVSVLTVLHQDWLNGKEYKCKVSNKALPAPIEKTISKAKGQPREPQVYTLPPSRCELTKNQVSLSCAVKGFYPSDIAVEWESNGQPENNYKTTPPVLDSDGSFFLVSKLTVDKSRWQQGNVFSCSVMHEALHNHYTQKSLSLSPDYKDDDDK
chain: EPKSSDKTHTCPPCPAPELLGGPSVFLFPPKPKDTLMISRTPEVTCVVVDVSHEDPEVKFNWYVDGVEVHNAKTKPREEQYNSTYRVVSVLTVLHQDWLNGKEYKCKVSNKALPAPIEKTISKAKGQPREPQVCTLPPSRDELTKNQVSLWCLVKGFYPSDIAVEWESNGQPENNYKTTPPVLDSDGSFFLYSKLTVDKSRWQQGNVFSCSVMHEALHNRYTQKSLSLSP

Target: T1, CD3 epsilon homodimer protein (UniProt P07766 23-126)
T1 construct: Construct of the homodimer is not described; also called CD3 (CD3 epsilon)
Assay: SPR Biacore T200, CD3e homodimer on chip, antibody analyte;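 further: CD3 epsilon homodimer amine-coupled on CM4 sensor chip, antibodies injected as analyte at 25 °C in HBS-EP+, ratio ≥0.8 taken as binding retained versus unaltered parent antibody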

T1 sequence (P07766 23-126): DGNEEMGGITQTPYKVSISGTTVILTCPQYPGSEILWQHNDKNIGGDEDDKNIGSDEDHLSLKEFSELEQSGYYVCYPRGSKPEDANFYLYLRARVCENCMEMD

Binder | ratio of amounts bound (altered form/GLS3000)
B1 | 0.69
B2 | 0.69
B3 | 0.41
B4 | 0.71
